Test results taken from patent US10159707B2, “Treatment of cancers with immunostimulatory HIV Tat derivative polypeptides” (PIN Pharma, Inc., priority 2013, dated 2018).
“Also recorded” adds a separate entry of the source.

Assays:
Type in all cases: in vivo, mouse
TS/A breast cancer cells = test: TS/A breast carcinoma model, primary tumor growth
Experimental: (§1) BALB/c mice were injected (SC) with 1×10^4 4 T1, 1×10^5 TS/A or 2×10^5 SM1 cells, respectively, in the left mammary pad on day 0. Immunotherapy was performed by directly injecting a Tat derivative into the right flank at 0, 7, 12, and 17 days after establishment of tumors. The control group received PBS injection. […] Tumor burden (tumor volume) was measured and recorded three times weekly. Animals were sacrificed when tumors reached a volume of 15 mm in diameter and the tumors harvested and weighed.
The 4T1 murine mammary tumor model was chosen for study because it is an aggressive and rapidly invasive tumor; it is routinely metastatic at fourteen days post-implant by which time it is difficult to treat. To learn whether the efficacy of Nani-P2 could extend to other murine breast tumor models, two additional mammary tumors, TS/A and SM1 were studied (FIG. 6). TS/A primary mammary tumors were approximately as aggressive as 4T1, reaching a tumor volume of 15 mm at 30 days (FIG. 6A). However, the TS/A tumors were considerably more responsive to Nani-P2 treatment, with an approximate 50% suppression of growth after treatment with 0.4 ng Nani-P2, and a 40% total remission rate at 30 days.

SM1 breast cancer cells = test: SM1 mammary carcinoma model, primary tumor growth
Experimental: as §1, with “Immunotherapy was performed by directly injecting a Tat derivative into the right flank at 0, 7, 12, and 17 days after establishment of tumors.” left out
The SM1 mammary carcinoma model (FIG. 6B) is initially less aggressive as a primary tumor, and deaths appear to be through mechanisms other than metastatic disease. By day 30 of treatment, SM1 tumors reached a mean volume approximately 33% smaller than either TS/A or 4T1. This indicated a heightened sensitivity of the SM1 tumor to Nani-P2 immunotherapy as compared to 4T1, such that tumor growth was suppressed in 100% of animals for 16 days, and 40% of animals remained in remission even at 28 days following implant and fully one week after termination of the regimen.

PD-L1 = test: IHC staining of primary 4T1 breast tumors for PD-L1; settings: therapy initiated 7 days after inoculation, resected Day 29/30
Experimental: (§2) Female BALB/c mice were inoculated in the mammary fat pad with syngeneic and highly metastatic 4T1 breast cancer cells to model Stage IV human breast cancer. Nani-P2 immunotherapy was initiated 7 days after tumor cell inoculation. Tumors were assessed by caliper measurements throughout the study and resected on Day 29/30. Immunohistochemical staining (IHC) for PD-L1 and CD8 was performed on formalin-fixed, paraffin embedded specimens of primary 4T1 tumors.

[1] = tested on: tumor infiltrating CD8+ CTL; test: IHC staining of primary 4T1 breast tumors for CD8; settings: therapy initiated 7 days after inoculation; resected Day 29/30; listed as PIN-2
Experimental: as §2

B1: Nani-P2: Tat derivative polypeptide SEQ ID NO:3; TF SIVagmVer, cysteine-rich HIV-1, C-terminal SIVagmVer (protein)
chain: MDPKGEEDQDVSHQDLIKQYRKPRTACNNCYCKKCCFHCYACFLRKGLGITYHAFRTRRKKIASADRIPVPQQSISIRGRDSQTTQESQKKVEEQAKANLRISRKNLGDETRGPVGAGN
modifications: Tat derivative polypeptide
notes: TF SIVagmVer, cysteine-rich HIV-1, C-terminal SIVagmVer
- suppression of TS/A tumor growth (TS/A breast cancer cells; 0.4 ng SC): ~50%
- TS/A primary anti-cancer difference versus control, lowest dose (TS/A breast cancer cells; 0.4 ng SC, p<0.01): highly significant
- TS/A primary anti-cancer difference versus control, 40 ng (TS/A breast cancer cells; 40 ng SC, p<0.01): highly significant
- TS/A total remission rate at 30 days (TS/A breast cancer cells; SC Nani-P2, 30 days): 40%
- animals with SM1 tumor growth suppressed for 16 days (SM1 breast cancer cells; 40 ng SC days 0, 7, 14, 21): 100%
- difference in SM1 primary tumor growth versus control (SM1 breast cancer cells; 40 ng SC days 0, 7, 14, 21, p<0.01): highly statistically significant
- animals remaining in remission at 28 days following implant (SM1 breast cancer cells; 40 ng SC, one week after termination of the regimen): 40%
- PD-L1 expression in primary 4T1 tumors versus controls (PD-L1): reduced
- PD-L1 expression in primary 4T1 tumors versus controls (PD-L1; listed as PIN-2): reduced PD-L1 presence near the tumor edge
- tumor infiltrating CD8+ CTL versus PBS control [1]: infiltrating CD8+ CTL advancing around tumor edge; also recorded: significant increase in the population of tumor infiltrating CD8+ CTL
